Measured values from ChEMBL document CHEMBL1137660, “Molecular and biochemical characterization of the chromosome-encoded class A beta-lactamase BCL-1 from Bacillus clausii” (Antimicrob Agents Chemother, 2007).

Key:
[1] = substrate: CO/N=C(\C(=O)N[C@@H]1C(=O)N2C(C(=O)[O-])=C(C[N+]3(C)CCCC3)CS[C@H]12)c1csc(N)n1; assay: (§1) Activity of Bacillus anthracis beta-lactamase Bla1
[2] = substrate: CO/N=C(\C(=O)N[C@@H]1C(=O)N2C(C(=O)O)=C(COC(C)=O)CS[C@H]12)c1csc(N)n1; assay: as §1
[3] = substrate: CC(C)(O/N=C(\C(=O)N[C@@H]1C(=O)N2C(C(=O)[O-])=C(C[n+]3ccccc3)CS[C@H]12)c1csc(N)n1)C(=O)O; assay: as §1
[4] = substrate: O=C(Cc1cccs1)N[C@@H]1C(=O)N2C(C(=O)[O-])=C(C[n+]3ccccc3)CS[C@H]12; assay: Ratio of Kcat to Km for Bacillus anthracis beta-lactamase Bla1
[5] = substrate: CO/N=C(\C(=O)N[C@@H]1C(=O)N2C(C(=O)[O-])=C(C[n+]3cccc4c3CCC4)CS[C@H]12)c1csc(N)n1; details: Shouchella clausii; NR
[6] = substrate: CO/N=C(\C(=O)N[C@@H]1C(=O)N2C(C(=O)O)=C(COC(N)=O)CS[C@H]12)c1ccco1; details: Shouchella clausii; NR
[7] = substrate: C[C@H]1[C@H](NC(=O)/C(=N\OC(C)(C)C(=O)O)c2csc(N)n2)C(=O)N1S(=O)(=O)O; details: Shouchella clausii; NR
[8] = substrate: CO[C@@]1(NC(=O)C(C(=O)O)c2ccc(O)cc2)C(=O)N2C(C(=O)O)=C(CSc3nnnn3C)CO[C@@H]21; details: Shouchella clausii; NR
[9] = substrate: CO/N=C(\C(=O)N[C@@H]1C(=O)N2C(C(=O)[O-])=C(C[N+]3(C)CCCC3)CS[C@H]12)c1csc(N)n1; details: Shouchella clausii; NR
[10] = substrate: CO/N=C(\C(=O)N[C@@H]1C(=O)N2C(C(=O)O)=C(COC(C)=O)CS[C@H]12)c1csc(N)n1; details: Shouchella clausii; NR
[11] = substrate: CC(C)(O/N=C(\C(=O)N[C@@H]1C(=O)N2C(C(=O)[O-])=C(C[n+]3ccccc3)CS[C@H]12)c1csc(N)n1)C(=O)O; details: Shouchella clausii; NR
[12] = substrate: CC1(C)S[C@@H]2[C@H](NC(=O)Cc3ccccc3)C(=O)N2[C@H]1C(=O)O; details: Shouchella clausii; NR
[13] = substrate: CC1(C)S[C@@H]2[C@H](NC(=O)[C@H](N)c3ccc(O)cc3)C(=O)N2[C@H]1C(=O)O; details: Shouchella clausii; NR
[14] = substrate: CO/N=C(\C(=O)N[C@@H]1C(=O)N2C(C(=O)O)=C(CSc3nc(=O)c(O)nn3C)CS[C@H]12)c1csc(N)n1; details: Shouchella clausii; NR
[15] = substrate: CC1(C)S[C@@H]2[C@H](NC(=O)[C@H](C(=O)O)c3ccsc3)C(=O)N2[C@H]1C(=O)O; details: Shouchella clausii; NR
[16] = substrate: O=C(Cc1cccs1)N[C@@H]1C(=O)N2C(C(=O)[O-])=C(C[n+]3ccccc3)CS[C@H]12; details: Shouchella clausii; NR
[17] = substrate: CCN1CCN(C(=O)N[C@@H](C(=O)N[C@@H]2C(=O)N3[C@@H]2SC(C)(C)[C@@H]3C(=O)O)c2ccccc2)C(=O)C1=O; details: Shouchella clausii; NR
[18] = substrate: CO[C@@]1(NC(=O)Cc2cccs2)C(=O)N2C(C(=O)O)=C(COC(N)=O)CS[C@@H]21; details: Shouchella clausii; NR
[19] = substrate: CC(=O)OCC1=C(C(=O)O)N2C(=O)[C@@H](NC(=O)Cc3cccs3)[C@H]2SC1; details: Shouchella clausii; NR
[20] = substrate: CO/N=C(\C(=O)N[C@@H]1C(=O)N2C(C(=O)[O-])=C(C[n+]3cccc4c3CCC4)CS[C@H]12)c1csc(N)n1; details: Shouchella clausii; NR; remark: listed apart in the source
[21] = substrate: CO/N=C(\C(=O)N[C@@H]1C(=O)N2C(C(=O)O)=C(COC(N)=O)CS[C@H]12)c1ccco1; details: Shouchella clausii; NR; remark: listed apart in the source
[22] = substrate: CO/N=C(\C(=O)N[C@@H]1C(=O)N2C(C(=O)[O-])=C(C[N+]3(C)CCCC3)CS[C@H]12)c1csc(N)n1; details: Shouchella clausii; NR; remark: listed apart in the source
[23] = substrate: CO/N=C(\C(=O)N[C@@H]1C(=O)N2C(C(=O)O)=C(COC(C)=O)CS[C@H]12)c1csc(N)n1; details: Shouchella clausii; NR; remark: listed apart in the source
[24] = substrate: CC(C)(O/N=C(\C(=O)N[C@@H]1C(=O)N2C(C(=O)[O-])=C(C[n+]3ccccc3)CS[C@H]12)c1csc(N)n1)C(=O)O; details: Shouchella clausii; NR; remark: listed apart in the source
[25] = substrate: CC1(C)S[C@@H]2[C@H](NC(=O)Cc3ccccc3)C(=O)N2[C@H]1C(=O)O; details: Shouchella clausii; NR; remark: listed apart in the source
[26] = substrate: CC1(C)S[C@@H]2[C@H](NC(=O)[C@H](N)c3ccc(O)cc3)C(=O)N2[C@H]1C(=O)O; details: Shouchella clausii; NR; remark: listed apart in the source
[27] = substrate: CO/N=C(\C(=O)N[C@@H]1C(=O)N2C(C(=O)O)=C(CSc3nc(=O)c(O)nn3C)CS[C@H]12)c1csc(N)n1; details: Shouchella clausii; NR; remark: listed apart in the source
[28] = substrate: CC1(C)S[C@@H]2[C@H](NC(=O)[C@H](C(=O)O)c3ccsc3)C(=O)N2[C@H]1C(=O)O; details: Shouchella clausii; NR; remark: listed apart in the source
[29] = substrate: O=C(Cc1cccs1)N[C@@H]1C(=O)N2C(C(=O)[O-])=C(C[n+]3ccccc3)CS[C@H]12; details: Shouchella clausii; NR; remark: listed apart in the source
[30] = substrate: CCN1CCN(C(=O)N[C@@H](C(=O)N[C@@H]2C(=O)N3[C@@H]2SC(C)(C)[C@@H]3C(=O)O)c2ccccc2)C(=O)C1=O; details: Shouchella clausii; NR; remark: listed apart in the source
[31] = substrate: CC(=O)OCC1=C(C(=O)O)N2C(=O)[C@@H](NC(=O)Cc3cccs3)[C@H]2SC1; details: Shouchella clausii; NR; remark: listed apart in the source
[32] = substrate: CC1(C)S[C@@H]2[C@H](NC(=O)Cc3ccccc3)C(=O)N2[C@H]1C(=O)O; assay: (§2) Activity of Bacillus cereus beta-lactamase BcI
[33] = substrate: CC(=O)OCC1=C(C(=O)O)N2C(=O)[C@@H](NC(=O)CCC[C@@H](N)C(=O)O)[C@H]2SC1; assay: as §2

B1: Beta-lactamase (Bacillus anthracis), Q93T42 (protein)
chain: MIVLKNKKMLKIGMCVGILGLSITSLVTFTGGALQVEAKEKTGQVKHKNQATHKEFSQLEKKFDARLGVYAIDTGTNQTIAYRPNERFAFASTYKALAAGVLLQQNSTKKLDEVITYTKEDLVDYSPVTEKHVDTGMTLGEIAEAAVRYSDNTAGNILFHKIGGPKGYEKALRQMGDRVTMSDRFETELNEAIPGDIRDTSTAKAIATNLKAFTAGNALPNHKRNILTKWMKGNATGDKLIRAGVPTNWVVADKSGAGSYGTRNDIAIVWPPNRAPIIIAILSSKDEKGATYDNQLIAEAAEVIVNAFR
With B1 the kcat [1] was less than 0.2 s⁻¹, the kcat [2] was less than 0.2 s⁻¹ and the kcat [3] was less than 0.2 s⁻¹. The kcat/Km [4] was 1.1e+06 M⁻¹ s⁻¹.

B2: Beta-lactamase (Bacillus clausii), A8RR46 (protein)
chain: MKRSFFMLKTKITSSILVGACLLIGCSNGNEQPVSNEPEPEESVETGEAVFKALEEEYAARLGVFALDTGTGQTVSYRSDERFTYASAHKPLAVAVLLQQKSIEELEQLITYSADDLVNYNPITENHVETGMTLRELSDASIRYSDNTAANFIFDEIGGPEGFKEGLRAIGDTVTEPERIEPELNHVEPGEIQDTSTPEALAKSLQEFALGEALPADKQELLIDWLIGNTTGDALIRAGVPEGWEVGDKTGAGSYGTRNDIAILWPPEKEPIILAVLSSKDEKDAEYDDELIAKATEEVINLLAQTE
B2 gave a Km [5] of 136 µM, a kcat [5] of 95 s⁻¹ and a Km [6] of 105 µM. It also gave a kcat [6] of 15 s⁻¹, a kcat [7] of less than 0.3 s⁻¹ and a kcat [8] of less than 0.01 s⁻¹. For the same protein, the Km [9] was greater than 1000 µM, the kcat [9] was greater than 40 s⁻¹ and the Km [10] was 790 µM. For the same protein, the kcat [10] was 22 s⁻¹, the Km [11] was 1000 µM and the kcat [11] was greater than 3.3 s⁻¹. For the same protein, the Km [12] was 12 µM, the kcat [12] was 97 s⁻¹ and the Km [13] was 22 µM. The kcat [13] was 85 s⁻¹, the Km [14] was 950 µM and the kcat [14] was 30 s⁻¹. It also gave a Km [15] of 6 µM, a kcat [15] of 5 s⁻¹ and a Km [16] of 45 µM. It also gave a kcat [16] of 115 s⁻¹, a Km [17] of 21 µM and a kcat [17] of 38 s⁻¹. The Km [18] was less than 0.01 µM, the kcat [18] was less than 0.01 s⁻¹ and the Km [19] was 15 µM. It also gave a kcat [19] of 22 s⁻¹, a kcat/Km [20] of 1e+06 M⁻¹ s⁻¹ and a kcat/Km [21] of 100000 M⁻¹ s⁻¹. For the same protein, the kcat/Km [22] was less than 40000 M⁻¹ s⁻¹, the kcat/Km [23] was 30000 M⁻¹ s⁻¹ and the kcat/Km [24] was less than 3000 M⁻¹ s⁻¹. For the same protein, the kcat/Km [25] was 8e+06 M⁻¹ s⁻¹, the kcat/Km [26] was 4e+06 M⁻¹ s⁻¹ and the kcat/Km [27] was 30000 M⁻¹ s⁻¹. The kcat/Km [28] was 1e+06 M⁻¹ s⁻¹, the kcat/Km [29] was 2.5e+06 M⁻¹ s⁻¹ and the kcat/Km [30] was 2e+06 M⁻¹ s⁻¹. For the same protein, the kcat/Km [31] was 1.5e+06 M⁻¹ s⁻¹.

B3: Beta-lactamase 1 (Bacillus cereus), P00809 (protein)
chain: MILKNKRMLKIGICVGILGLSITSLEAFTGESLQVEAKEKTGQVKHKNQATHKEFSQLEKKFDARLGVYAIDTGTNQTISYRPNERFAFASTYKALAAGVLLQQNSIDSLNEVITYTKEDLVDYSPVTEKHVDTGMKLGEIAEAAVRSSDNTAGNILFNKIGGPKGYEKALRHMGDRITMSNRFETELNEAIPGDIRDTSTAKAIATNLKAFTVGNALPAEKRKILTEWMKGNATGDKLIRAGIPTDWVVGDKSGAGSYGTRNDIAVVWPPNSAPIIVLISSKDEKEAIYNDQLIAEATKVIVKGS
For B3, the Km [32] was 65 µM, the kcat [32] was 2200 s⁻¹ and the kcat [33] was 0.2 s⁻¹.
